In the supplement of paper PMC10126150:
± gives the standard deviation of the averaged measurements.

test system: ATP; experiment: switch fluorescence ratio, 500 uM ATP over buffer (Cy3 cluster intensity, sum of 5 cycles each) (fold (ratio)); higher = stronger signal-on switching upon ATP binding; sequences stand for … in TCGTCGGCAGCGTCAGATGTGTATAAGAGACAGTTTTTTTTTTTTTTTTTTTTTTTTT…TC; details: aptamer strand: ATP DNA aptamer (quencher-CACCTGGGGGAGTATTGCGGAGGAAGG + anchor), 100 nM annealed; ATP concentration: 500 uM
Summary of the method: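 For every switch-domain sequence, the fluorescence ratio is the mean of per-cluster values, each being summed target-cycle Cy3 intensity over summed buffer-cycle Cy3 intensity. Clusters outside 100-1000 RFU were excluded. On a modified Illumina MiSeq flow-cell, the Cy3-labelled switching-strand clusters were annealed to 100 nM quencher-labelled ATP aptamer, imaged in selection buffer and then after 15 min with 500 uM ATP at 22 °C. Five such cycles were run, with NaOH stripping and re-annealing between them.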
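Also: ATP exposure 15 min at 22 °C before imaging.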

Sequence	switch fluorescence ratio
AACCTGGGGC	1.15 ± 0.044
AATCGGTGCG	0.986 ± 0.049
GTTATATTTT	1.01 ± 0.032
TATTTTGAAG	1.07 ± 0.13
TATTGATGGT	0.994 ± 0.019
AGGTCCTGTG	0.998 ± 0.016
TCTACTTTAC	1.39 ± 0.15
AGCTTCTTAA	0.992 ± 0.068
TCGATGCAAG	1.23 ± 0.015
CGGTTAGGCG	1.06 ± 0.012
ACGGGTTCCT	1 ± 0.025
GGCAATAATA	1.09 ± 0.035
CTCATCGGCT	1.03 ± 0.03
TCTTTGATGA	0.983 ± 0.051
GTTTTGAAAA	0.949 ± 0.019
AGCCCACTCG	1.04 ± 0.05
TTCTAATCCG	1.036 ± 0.0091
ATATAAAAAA	1.01 ± 0.026
ACCGTCCCCA	1.26 ± 0.11
AATACAGCAT	1.03 ± 0.014
GGGGTGAGAG	0.993 ± 0.026
CGGTATTCCG	0.945 ± 0.017
TATGGAGGCT	1.07 ± 0.015

Sequence	switch fluorescence ratio
TCATTAATAG	0.996 ± 0.012
TCAAATAGTT	0.997 ± 0.0026
TAAGGGGAAA	0.979 ± 0.026
GGTTTGCTGA	1.01 ± 0.043
AATGAATTGT	1.02 ± 0.022
ATGGTAGCTT	1 ± 0.024
TATGTTAATG	0.999 ± 0.016
ATTAGAAGGG	0.985 ± 0.061
TAAAGAGGGG	1 ± 0.021
GGCCTCGGGG	1.01 ± 0.05
ATTTCCACAA	1.1 ± 0.03
TTACAATTTT	0.985 ± 0.019
ATGTAAGTGC	0.967 ± 0.064
GGAACAGCTT	0.983 ± 0.017
CGCGAGGACT	1.27 ± 0.11
AGGCTAACCG	0.985 ± 0.019
CGGTCAAGAG	1.11 ± 0.019
GAGCGACCTG	0.989 ± 0.016
TTGGCAGGCC	1.017 ± 0.0074
TTATTAGTGC	1.03 ± 0.1
GAATCTTAGG	1.03 ± 0.024
GAGGTCGTGA	0.975 ± 0.019
CCGCGACAAG	2.18 ± 0.086

Sequence	switch fluorescence ratio
ACGGGGGCCG	0.993 ± 0.041
GGAGGGGCTG	1.02 ± 0.085
TAATTTAATA	1.02 ± 0.011
TTATAATTGT	0.9966 ± 0.0022
CCTGGGGGTT	1.6 ± 0.79
CCCATTTGCT	1.02 ± 0.03
CGAGAAGTTT	1.005 ± 0.0081
ACGTCAAGAG	1.45 ± 0.0026
AGGAGGAAGT	1.01 ± 0.026
AACGCGGGGG	0.983 ± 0.044
AGGGGATTCA	1.02 ± 0.02
CTCAAGGTGA	1.45 ± 0.11
TTAACTGGGG	1.11 ± 0.13
CTAATGTGCG	1.15 ± 0.28
TTAACGCGTT	1.0063 ± 0.00089
CGGGGGGCTC	0.99 ± 0.01
GTGGTCGATG	0.953 ± 0.043
CGTTTAAGGG	0.9819 ± 0.0074
AGTTCAAACC	1.04 ± 0.062
AGGAGGCATG	0.986 ± 0.043
ATTTTTAGTT	0.991 ± 0.037
GGAAGTTAGT	0.98253 ± 0.00016
TTGTGAGTCT	1.01 ± 0.011

Sequence	switch fluorescence ratio
TTTTAATTGT	1.08 ± 0.083
ATAATGGTTG	1.04 ± 0.043
AATAAAAAGT	0.982 ± 0.023
TTGGGGGGA	0.997 ± 0.048
CGAGTGTCAG	0.976 ± 0.028
CTAAGCCAAT	1.21 ± 0.023
TTGGGCGAAT	0.988 ± 0.021
GGGTATAGGC	0.981 ± 0.046
ACATGTCTGG	1.001 ± 0.0016
AGTTTAGATG	0.968 ± 0.02
AAATAAACA	0.999 ± 0.023
CTGAAAGAGT	0.976 ± 0.026
GCATGGAGTA	1.02 ± 0.029
GAGGTTACGC	0.988 ± 0.053
CCCCAGTCAA	3.3 ± 0.43
AGTCTTGGGG	0.977 ± 0.019
GGGTCAACGC	0.9974 ± 0.0036
TTTTTAGCGT	0.995 ± 0.027
TGGAAGCGTC	1.02 ± 0.022
TGAACGACAG	1.031 ± 0.0093
AAAGGTTAAA	0.99 ± 0.018
AAGGTCTGAG	1.02 ± 0.043
GACGCACTAA	2.76 ± 0.44

Sequence	switch fluorescence ratio
GCGTTGCCAG	0.9816 ± 0.0081
TTTTGTTTAT	1.01 ± 0.058
ATATGGTGAT	1 ± 0.057
AATTGGTTTT	0.982 ± 0.034
GTTTTAACGG	1.02 ± 0.029
ATGTGGCCGG	0.997 ± 0.024
AACAACAGGA	1.03 ± 0.045
GTAAGTTCTG	1 ± 0.011
GGGAGGCCAT	0.9683 ± 0.0076
GGGAAAATTT	1.07 ± 0.059
TGCAGATCGG	0.9927 ± 0.0028
GTAATGATGG	0.994 ± 0.036
AAGGTTAATG	1 ± 0.016
GTTGTCAGGG	0.982 ± 0.012
GCTTGTATGA	1.013 ± 0.0032
ATACGAAGGG	0.985 ± 0.059
CAATTTGATG	0.979 ± 0.05
ATTTTAGAGT	1.018 ± 0.0063
CAAACGCCCG	0.9968 ± 0.0073
GTAGGTTTGA	0.994 ± 0.012
CTGACTGCAG	1.01 ± 0.049
GTTGGTGTAT	0.9913 ± 0.009
AGTTTACCGG	1.01 ± 0.022

Sequence	switch fluorescence ratio
CCATTGGGTA	1.01 ± 0.036
GGTAGAGATT	1.02 ± 0.037
GGGGATGTGG	0.99 ± 0.037
AGCAATGGGG	1.58 ± 0.051
CCATAGAGAT	1.025 ± 0.0025
AACAAGGGCG	1.03 ± 0.018
AGGCTACGTC	0.9925 ± 0.0061
TATCAGGGGG	0.988 ± 0.026
TAGGGAAACT	1.21 ± 0.26
CAGTGGATAC	1.2218 ± 0.00027
GTTGACGCTA	1.07 ± 0.024
CTTGATGTTG	1.01 ± 0.012
TTTGTGGCAG	0.991 ± 0.039
GGGGGGGTTG	1.01 ± 0.083
TTTTCTCTCA	1.01 ± 0.02
TCATATTGGA	0.979 ± 0.015
GGTTTTCAGT	1.03 ± 0.045
AAGTAGGCGC	0.9958 ± 0.008
AGTACTGGCA	1.04 ± 0.061
GAACGTTTGG	1.04 ± 0.074
AGTGTTACTG	0.975 ± 0.044
GTTAAACGTT	1 ± 0.014
GGCTTATGTG	1.02 ± 0.051

Sequence	switch fluorescence ratio
CGTTTGACTT	0.9947 ± 0.0066
TACGTGCCTC	0.99 ± 0.02
GCGAGCCAGG	2.169 ± 0.011
TTGGTCAAGG	0.995 ± 0.045
ATGTGGGTAC	1.02 ± 0.026
ATTTTTGTTC	1.0252 ± 0.00061
TGTTGTTTTT	0.991 ± 0.037
ACGGTTATTT	1.072 ± 0.01
TATGGGCAGT	1.007 ± 0.0017
TGAAGGGTTG	1.01 ± 0.026
CAAATGTCGT	1.008 ± 0.008
ATCCGGTTAT	1.03 ± 0.016
CGCTGGATGG	0.985 ± 0.0075
ATGGAGGGCA	1.03 ± 0.049
AAATACGCTC	1.25 ± 0.2
GTGCTTTGCG	0.9928 ± 0.0014
TATCGTTTAA	0.987 ± 0.032
AACGGTGCGG	1.01 ± 0.026
AGGGGGGGTT	0.992 ± 0.033
